{
  "source": "paper PMC8517123",
  "about": "“Functional Interaction Between Caveolin 1 and LRRC8-Mediated Volume-Regulated Anion Channel” (Frontiers in Physiology, 2021)",
  "biological_target": "T1, Leucine-rich repeat-containing 8A (human (endogenous in HEK 293), UniProt Q8IWT6 1-810)",
  "T1 construct": "LRRC8A, essential subunit of the volume-regulated anion channel (VRAC), endogenous in HEK 293 cells; Endogenous protein in lysate; in cells it is part of heteromeric LRRC8 channels, and other subunits may be present in the precipitate; also called LRRC8A; source: endogenous, HEK 293 lysate (1% Triton X-100)",
  "T1 sequence (looked up)": "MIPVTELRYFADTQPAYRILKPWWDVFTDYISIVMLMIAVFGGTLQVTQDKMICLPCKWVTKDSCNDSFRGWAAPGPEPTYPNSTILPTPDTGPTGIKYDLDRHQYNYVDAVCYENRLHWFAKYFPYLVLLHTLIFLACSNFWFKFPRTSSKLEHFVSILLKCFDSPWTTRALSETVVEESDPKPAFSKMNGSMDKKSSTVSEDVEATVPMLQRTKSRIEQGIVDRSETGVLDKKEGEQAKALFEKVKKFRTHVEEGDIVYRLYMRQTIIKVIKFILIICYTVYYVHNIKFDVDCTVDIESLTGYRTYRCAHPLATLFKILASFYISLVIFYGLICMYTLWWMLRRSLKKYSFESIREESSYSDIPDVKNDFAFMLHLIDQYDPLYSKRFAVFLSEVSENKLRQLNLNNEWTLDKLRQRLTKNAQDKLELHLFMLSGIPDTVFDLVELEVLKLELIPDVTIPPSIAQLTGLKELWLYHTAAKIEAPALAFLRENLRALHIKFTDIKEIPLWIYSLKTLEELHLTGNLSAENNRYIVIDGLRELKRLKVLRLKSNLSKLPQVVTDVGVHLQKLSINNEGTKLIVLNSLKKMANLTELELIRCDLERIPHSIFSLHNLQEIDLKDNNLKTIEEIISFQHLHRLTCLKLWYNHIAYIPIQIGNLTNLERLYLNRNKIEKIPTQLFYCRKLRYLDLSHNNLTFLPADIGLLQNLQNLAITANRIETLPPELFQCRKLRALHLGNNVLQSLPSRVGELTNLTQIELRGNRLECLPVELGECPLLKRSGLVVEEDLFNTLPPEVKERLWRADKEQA",
  "test": "co-IP; endogenous proteins; HEK 293 cells exposed to isotonic (300 mOsm/Kg) or hypotonic (255 mOsm/Kg) solution for 7 min at 37°C; lysis in 1% Triton X-100; 100-500 μg protein with 2-4 μg anti-Cav1 or anti-LRRC8A antibody at 4°C overnight, protein A sepharose; western blot",
  "conditions": "partners not purified",
  "data": [
    {"binder": "Caveolin 1 (natural protein, human (endogenous in HEK 293), UniProt Q03135 1-178, looked up, Caveolin 1, endogenous in HEK 293 cells; also called Cav1; source: endogenous, HEK 293 lysate (1% Triton X-100)) MSGGKYVDSEGHLYTVPIREQGNIYKPNNKAMADELSEKQVYDAHTKEIDLVNRDPKHLNDDVVKIDFEDVIAEPEGTHSFDGIWKASFTTFTVTKYWFYRLLSALFGIPMALIWGIYFAILSFLHIWAVVPCIKSFLIEIQCISRVYSIYVHTVCDPLFEAVGKIFSNVRINLQKEI", "values": [
      {"measurement": "LRRC8A/Cav1 ratio, hypotonic vs. isotonic (densitometry of co-IP)", "value": 2.2, "unit": "ratio"}
    ]}
  ]
}
